Data on two substances can be found in PMC7230020.

The experiment concerns the target activated RecA (RecA*), E. coli RecA polymerised on ssDNA with ATPγS (E. coli) (UniProt P0A7G6). In words: fluorescence polarisation. A general note: In fluorescence polarisation assays a small probe gives low polarisation when free and higher when bound to something large.

activated RecA (RecA*), E. coli RecA polymerised on ssDNA with ATPγS (E. coli), sequence (P0A7G6 whole entry): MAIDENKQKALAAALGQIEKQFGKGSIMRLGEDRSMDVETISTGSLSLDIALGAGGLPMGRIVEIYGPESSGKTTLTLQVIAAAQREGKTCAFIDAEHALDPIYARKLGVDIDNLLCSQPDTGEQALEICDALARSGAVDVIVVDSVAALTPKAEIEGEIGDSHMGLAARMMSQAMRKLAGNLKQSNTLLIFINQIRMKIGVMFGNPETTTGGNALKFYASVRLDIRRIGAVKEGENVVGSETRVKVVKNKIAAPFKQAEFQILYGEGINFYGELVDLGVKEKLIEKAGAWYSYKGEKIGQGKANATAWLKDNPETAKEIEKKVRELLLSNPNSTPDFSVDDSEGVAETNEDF

In the case of “LexA G80P, full-length cleavage loop variant (from UniProt P0A7C2 1-202) (natural protein)”, the fold decrease in apparent affinity for RecA* against LexA-S119A was over 10 fold.

Regarding “LexA V82M, full-length cleavage loop variant (from UniProt P0A7C2 1-202) (natural protein)”, the fold decrease in apparent affinity for RecA* against LexA-S119A was over 10 fold.
